Source: patent US20200087367A1 (ACCELERON PHARMA, published 2020)
One block for each binder: values may come before it.

B1: BMP5 (ligand, human, UniProt P22003 317-454, looked up)
chain: AANKRKNQNRNKSSSHQDSSRMSSVGDYNTSEQKQACKKHELYVSFRDLGWQDWIIAPEGYAAFYCDGECSFPLNAHMNATNHAIVQTLVHLMFPDHVPKPCCAPTKLNAISVLYFDDSSNVILKKYRNMVVRSCGCH

Assays:
BMP10pro(22-315)-mFc = biological target: T1, BMP10pro(22-315)-mFc (human, UniProt O95393 22-315); test: SPR (Biacore), BMP10pro-Fc captured by anti-Fc antibody, ligand injected
T1 construct: also called mouse Fc equivalent construct; not shown: optional linker and mouse immunoglobulin G1 Fc domain
T1 sequence: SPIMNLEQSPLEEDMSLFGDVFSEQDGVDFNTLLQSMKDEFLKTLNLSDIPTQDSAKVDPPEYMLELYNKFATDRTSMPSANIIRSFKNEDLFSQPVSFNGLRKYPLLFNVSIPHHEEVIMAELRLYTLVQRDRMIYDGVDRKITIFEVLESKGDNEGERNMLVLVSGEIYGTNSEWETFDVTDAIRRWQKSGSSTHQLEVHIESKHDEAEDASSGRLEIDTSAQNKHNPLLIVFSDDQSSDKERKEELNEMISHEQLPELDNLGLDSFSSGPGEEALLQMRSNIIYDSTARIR
Procedure: (§1) The BMP10pro-Fc proteins were separately was captured onto the system using an anti-Fc antibody, and ligands were injected and allowed to flow over the captured receptor protein. […] The mouse Fc equivalent constructs behaved similarly. […] The affinity of BMP10pro(22-315)-hFc for BMP3b was not assessed.

BMP10pro(22-312)-mFc = biological target: T2, BMP10pro(22-312)-mFc (human, UniProt O95393 22-312); test: as above
T2 construct: also called mouse Fc equivalent construct; not shown: optional linker and mouse immunoglobulin G1 Fc domain
T2 sequence: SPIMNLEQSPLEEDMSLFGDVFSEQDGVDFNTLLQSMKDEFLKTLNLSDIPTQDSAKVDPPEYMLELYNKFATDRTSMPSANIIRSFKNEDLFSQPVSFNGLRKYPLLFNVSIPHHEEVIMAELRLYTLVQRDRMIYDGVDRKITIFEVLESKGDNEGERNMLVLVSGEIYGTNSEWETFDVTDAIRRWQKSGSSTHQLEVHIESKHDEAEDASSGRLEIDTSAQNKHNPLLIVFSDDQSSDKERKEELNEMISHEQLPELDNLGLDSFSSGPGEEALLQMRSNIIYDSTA
Procedure: as §1

BMP9 [1] = biological target: T3, BMP9 (human, UniProt Q9UK05 320-429); test: SPR, captured hENG-hFc, soluble BMP9; '-' = Binding undetectable
T3 construct: also called hBMP-9; hBMP9
T3 sequence (looked up): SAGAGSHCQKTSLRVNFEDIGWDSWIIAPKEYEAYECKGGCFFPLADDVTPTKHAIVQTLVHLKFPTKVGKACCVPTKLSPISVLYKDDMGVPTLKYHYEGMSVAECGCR
Procedure: (§2) SPR methodology was used to screen these hENG-hFc protein variants for high-affinity binding to human BMP9 and BMP10. In these experiments, captured hENG-hFc proteins were exposed to soluble BMP9 or BMP10 at 100 nM each.

BMP10 [2] = biological target: T4, BMP10 (human, UniProt O95393 317-424); test: SPR, captured hENG-hFc, soluble BMP10; '-' = Binding undetectable
T4 construct: also called hBMP-10; hBMP10
T4 sequence: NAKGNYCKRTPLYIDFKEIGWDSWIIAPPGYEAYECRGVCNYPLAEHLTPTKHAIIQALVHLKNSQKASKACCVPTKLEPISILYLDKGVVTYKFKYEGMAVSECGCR
Procedure: as §2

BMP5 = biological target: B1; test: SPR (Biacore), ligand amine-coupled to CM5 chip, Fc fusion injected
BMP9 [3] = biological target: T3, BMP9; test: as above
BMP6 = biological target: T5, BMP6 (human, UniProt P22004 382-513, limits assumed); test: as above
T5 sequence (looked up): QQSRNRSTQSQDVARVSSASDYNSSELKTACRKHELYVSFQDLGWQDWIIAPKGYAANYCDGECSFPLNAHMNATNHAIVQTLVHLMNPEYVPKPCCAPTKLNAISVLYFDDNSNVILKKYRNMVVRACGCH

BMP10 [4] = biological target: T4, BMP10; test: as above
hENG(26-586) = biological target: T6, hENG(26-586) (human, UniProt P17813 26-586); test: SPR (Biacore), immobilized hENG(26-586), soluble ligand; '-' = binding undetectable
T6 construct: Bought protein, a human variant with no Fc domain; also called R&D Systems, catalog #1097-EN
T6 sequence: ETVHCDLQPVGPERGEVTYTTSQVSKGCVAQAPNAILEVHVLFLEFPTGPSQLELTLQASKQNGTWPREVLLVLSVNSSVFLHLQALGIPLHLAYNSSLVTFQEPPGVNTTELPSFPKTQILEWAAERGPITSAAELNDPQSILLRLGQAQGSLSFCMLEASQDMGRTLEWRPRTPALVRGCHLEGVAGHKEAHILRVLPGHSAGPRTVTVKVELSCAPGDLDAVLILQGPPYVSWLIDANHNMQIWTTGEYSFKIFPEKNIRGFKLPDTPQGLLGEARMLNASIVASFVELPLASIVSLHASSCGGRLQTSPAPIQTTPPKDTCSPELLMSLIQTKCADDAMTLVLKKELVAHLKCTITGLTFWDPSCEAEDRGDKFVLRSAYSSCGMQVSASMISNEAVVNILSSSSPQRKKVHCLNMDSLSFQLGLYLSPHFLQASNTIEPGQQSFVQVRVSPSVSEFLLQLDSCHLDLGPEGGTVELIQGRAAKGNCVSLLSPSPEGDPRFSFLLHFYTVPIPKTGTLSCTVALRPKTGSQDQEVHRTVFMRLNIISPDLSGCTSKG
From the text: Considered a co-receptor, ENG is widely thought to function by facilitating the binding of TGF-β1 and -3 to multi-protein complexes of type I and type II receptors. To investigate the possibility of direct ligand binding by isolated ENG, surface plasmon resonance (SPR) methodology (Biacore™ instrument) was used to screen for binding of captured proteins comprising the full-length extracellular domain of ENG to a variety of soluble human TGF-β family ligands.

hENG(26-437)-hFc = biological target: T7, hENG(26-437)-hFc (human, UniProt P17813 26-437); test: SPR ligand screen; '-' = Binding undetectable
T7 construct: HEK 293, purified; not shown: linker and human IgG1 Fc domain
T7 sequence: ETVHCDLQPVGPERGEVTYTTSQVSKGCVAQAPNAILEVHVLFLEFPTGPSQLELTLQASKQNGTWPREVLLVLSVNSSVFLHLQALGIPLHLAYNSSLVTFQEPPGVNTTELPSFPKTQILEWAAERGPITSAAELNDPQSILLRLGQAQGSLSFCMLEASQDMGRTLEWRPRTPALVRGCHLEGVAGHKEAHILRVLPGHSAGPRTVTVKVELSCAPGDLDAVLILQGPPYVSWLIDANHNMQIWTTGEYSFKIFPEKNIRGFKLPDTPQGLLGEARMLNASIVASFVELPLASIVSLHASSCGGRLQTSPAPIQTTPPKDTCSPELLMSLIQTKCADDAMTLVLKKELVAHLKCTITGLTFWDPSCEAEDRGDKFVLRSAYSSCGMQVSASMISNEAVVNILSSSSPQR

Binder: B1
- binding result (BMP10pro(22-315)-mFc): binds
- binding result (BMP10pro(22-312)-mFc): binds

- binding result (BMP9 [1]): no binding (tested: 100 nM)
- binding result (BMP10 [2]): no binding (tested: 100 nM)
B2: hENG(360-437)-hFc (Fc fusion)
chain: QTKCADDAMTLVLKKELVAHLKCTITGLTFWDPSCEAEDRGDKFVLRSAYSSCGMQVSASMISNEAVVNILSSSSPQR
notes: Expressed in COS cells, not purified; not shown: linker and human IgG1 Fc domain

- binding result (BMP5): binds
B3: ActRIIB-mFc (Fc fusion, not shown: a dimerising Fc or GST)
chain: GRGEAETRECIYYNANWELERTNQSGLERCEGEQDKRLHCYASWRNSSGTIELVKKGCWLDDFNCYDRQECVATEENPQVYFCCCEGNFCNERFTHLPEAGGPEVTYEPPPTAPT

- Kd (BMP9 [3]): 0.0335 nM
- Kd (BMP6): 0.164 nM
- Kd (BMP10 [4]): 0.0173 nM
- Kd (BMP5): 2.92 nM
B4: ActRIIB-hFc (Fc fusion)
chain: GRGEAETRECIYYNANWELERTNQSGLERCEGEQDKRLHCYASWRNSSGTIELVKKGCWLDDFNCYDRQECVATEENPQVYFCCCEGNFCNERFTHLPEAGGPEVTYEPPPTAPTGGGTHTCPPCPAPELLGGPSVFLFPPKPKDTLMISRTPEVTCVVVDVSHEDPEVKFNWYVDGVEVHNAKTKPREEQYNSTYRVVSVLTVLHQDWLNGKEYKCKVSNKALPVPIEKTISKAKGQPREPQVYTLPPSREEMTKNQVSLTCLVKGFYPSDIAVEWESNGQPENNYKTTPPVLDSDGSFFLYSKLTVDKSRWQQGNVFSCSVMHEALHNHYTQKSLSLSPGK
notes: Extracellular domain of human ActRIIB, linker, human Fc

- binding result (hENG(26-586)): no binding (tested: 25 nM)
- binding result (hENG(26-437)-hFc): no binding (tested: 100 nM)
B5: TGF-β2 (ligand, human, UniProt P61812 303-414, looked up)
chain: ALDAAYCFRNVQDNCCLRPLYIDFKRDLGWKWIHEPKGYNANFCAGACPYLWSSDTQHSRVLSLYNTINPEASASPCCVSQDLEPLTILYYIGKTPKIEQLSNMIVKSCKCS
notes: also called hTGF-β2

- binding result (BMP9 [1]): no binding (tested: 100 nM)
- binding result (BMP10 [2]): no binding (tested: 100 nM)
B6: hENG(258-346)-hFc (Fc fusion)
chain: YVSWLIDANHNMQIWTTGEYSFKIFPEKNIRGFKLPDTPQGLLGEARMLNASIVASFVELPLASIVSLHASSCGGRLQTSPAPIQTTPP
notes: HEK 293, purified; not shown: linker and human IgG1 Fc domain

- binding result (hENG(26-586)): no binding (tested: 25 nM)
- binding result (hENG(26-437)-hFc): no binding (tested: 100 nM)
B7: BMP2 (ligand, human, UniProt P12643 283-396, looked up)
chain: QAKHKQRKRLKSSCKRHPLYVDFSDVGWNDWIVAPPGYHAFYCHGECPFPLADHLNSTNHAIVQTLVNSVNSKIPKACCVPTELSAISMLYLDENEKVVLKNYQDMVVEGCGCR
notes: also called hBMP-2

- binding result (hENG(26-586)): no binding (tested: 25 nM)
- binding result (hENG(26-437)-hFc): no binding (tested: 100 nM)
B8: hBMP-2/7 (ligand, human)
chain 1: QAKHKQRKRLKSSCKRHPLYVDFSDVGWNDWIVAPPGYHAFYCHGECPFPLADHLNSTNHAIVQTLVNSVNSKIPKACCVPTELSAISMLYLDENEKVVLKNYQDMVVEGCGCR
chain 2: STGSKQRSQNRSKTPKNQEALRMANVAENSSSDQRQACKKHELYVSFRDLGWQDWIIAPEGYAAYYCEGECAFPLNSYMNATNHAIVQTLVHFINPETVPKPCCAPTQLNAISVLYFDDSSNVILKKYRNMVVRACGCH

- binding result (BMP9 [3]): binds
- binding result (BMP6): no binding
- binding result (BMP10 [4]): binds
- binding result (BMP5): no binding
B9: ALK1-mFc (Fc fusion, mouse, UniProt Q61288 23-119, looked up)
chain: DLAKPSKLVNCTCESPHCKRPFCQGSWCTVVLVREQGRHPQVYRGCGSLNQELCLGRPTEFLNHHCCYRSFCNHNVSLMLEATQTPSEEPEVDAHLP
notes: extracellular domain; Mouse ALK1 fused to a murine Fc domain with a linker; also called mALK1-mFc; not shown: linker and murine Fc domain

- binding result (hENG(26-586)): no binding (tested: 25 nM)
- binding result (hENG(26-437)-hFc): no binding (tested: 100 nM)
B10: activin A (ligand, human, UniProt P08476 311-426, looked up)
chain: GLECDGKVNICCKKQFFVSFKDIGWNDWIIAPSGYHANYCEGECPSHIAGTSGSSLSFHSTVINHYRMRGHSPFANLKSCCVPTKLRPMSMLYYDDGQNIIKKDIQNMIVEECGCS
notes: also called hActivin A

- binding result (BMP9 [1]): no binding (tested: 100 nM)
- binding result (BMP10 [2]): no binding (tested: 100 nM)
B11: hENG(360-457)-hFc (Fc fusion)
chain: QTKCADDAMTLVLKKELVAHLKCTITGLTFWDPSCEAEDRGDKFVLRSAYSSCGMQVSASMISNEAVVNILSSSSPQRKKVHCLNMDSLSFQLGLYLS
notes: as for B2

- binding result (hENG(26-586)): no binding (tested: 25 nM)
- binding result (hENG(26-437)-hFc): no binding (tested: 100 nM)
B12: BMP7 (ligand, human, UniProt P18075 293-431, looked up)
chain: STGSKQRSQNRSKTPKNQEALRMANVAENSSSDQRQACKKHELYVSFRDLGWQDWIIAPEGYAAYYCEGECAFPLNSYMNATNHAIVQTLVHFINPETVPKPCCAPTQLNAISVLYFDDSSNVILKKYRNMVVRACGCH
notes: also called hBMP-7

- binding result (hENG(26-586)): no binding (tested: 25 nM)
- binding result (hENG(26-437)-hFc): no binding (tested: 50 nM)
B13: TGF-β3 (ligand, human, UniProt P10600 301-412, looked up)
chain: ALDTNYCFRNLEENCCVRPLYIDFRQDLGWKWVHEPKGYYANFCSGPCPYLRSADTTHSTVLGLYNTLNPEASASPCCVPQDLEPLTILYYVGRTPKVEQLSNMVVKSCKCS
notes: also called hTGF-β3
